A short description of the series: soluble fraction after stress (log2 fold change); higher = more stays soluble; pooled small domains, quantitative proteomics. The note with it: stress: pH 4. The gist of the method:
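Custom libraries of small protein domains were pooled and exposed to pH 4. High-throughput quantitative proteomics then measured the log2 fold change in the amount of each domain still soluble, with higher values meaning more stayed soluble. This soluble-fraction fold change stands for aggregation propensity.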
For “HMVTDVDELEKLIQKVLDSNSSQVDEYRQGKEKVFGFFVGAVMKLTKGQADPDVVNQLLKEKLSGRK”, the “soluble fraction (log2)” value was -0.0516.
“HMVTDVDYSTFLSQVEEGKVESVTIEDGEILFKGKDENGEARWYITGEMNDPNLVERLKDKVPSFNAPA”: the “soluble fraction (log2)” value is -0.128.
In the case of “HMVTIYQRIMLVLEDKQVSVNALSKLVDMSQTTLNTQLKGERTLSANVVAKVLVAYPDVSAEWLMRGVGTM”, the “soluble fraction (log2)” value was -0.426.
Consider “HMVTLYDGFLSELRKRIPRGAELTNTLVDMLYIEREAVYRRLRGEVPFTFIEVMTVSKELGISLDNLAQA”, for which the “soluble fraction (log2)” value is -0.802.
For “HMVTTADIILEFYSRNPNATLTQAAQHVARATGTTYSRQAISAQLKRLEVAGLVERNGHVTV” the value was -0.47.
For “HMVTTLLIINVAGKVKNPGVYQLPPGSRVVDALEAAGQQLKGVDISDINLARVLVDGEQILIGSN” the value was -1.35; for “HMVTVQEGETLSAIAARSGVSVKDLVRANEIRNPDSIQEGQVLFVP”, 0.165.
Take “HMVVADFQNYTVKPKENLYSLTKTSGLSQEELVALNPELKNGVQEGMVIKLPAAVKLMAQPE”: the “soluble fraction (log2)” value was 0.22.
Under “HMVVLPGEVLRINVIQEGKEHGQGVGYMDDGTMVVIENGREFIGEYMEVNVTKVLQTAAGRMIFGRVD” stands -0.917.
Under “HMVVLPPTEDAPEWAQVFDRLGRPESADGYKLPVPEGADPAFAKLASAKMHELGLSAKQGAALAAWWNEQA” stands -0.332; under “HMVVMEIGANGSEVVKLQKRLNQLGYYTEHASGVYDVKTASAVNEFQRQNELNATGKADYTTLDMIYNQ”, -0.204; under “HMVVRRLPFGFSKRFGVLVVPGTSNPVELLYREDASMQSLLEARRVVAQPVAFKKTDVESFNAQLARAHEN”, -0.122.
For “HMVVSDSAEIDKIVQDVIAANPKAIEDFKSGKTNVTGWLMGQVMKLSHGKANPKQATEILNKYLSK” the value was 0.18; for “HMVVTRVKAIDVVNIRKSDSETADKLGKAAVGDEFDLLEKKGNGWSKISYEGGEAYIKSEFLEPSE”, 0.034.
Take “HMVVVMEKNASSAEIEQVQERLRQAGFKIHLSQGVERTIIGAIGDRSQVDLGFLEALPGVEKVVPIMK”: the “soluble fraction (log2)” value was 0.248.
Take “HMVVYFGGPVMLERGIVLHTPDISTKGTINVSDDFALTAHKEILDNINKDTSSLQFKLAIGH”: the “soluble fraction (log2)” value is -0.337.
Consider “HMVWINIRDLSDLFSKSGKSENSKNILDLQTLKIEKLLGGGQINTPYTIKVKQATPSAIEKVKQAGGEVIL”, for which the “soluble fraction (log2)” value was -0.00604.
Consider “HMVWPETEAIVTEDFIGKKRSEVQQEGVIFEFFGEGDMVIDQLPRGGVTLNESGRVWIYLGEDTF”, for which the “soluble fraction (log2)” value was -1.4.
Regarding “HMVYFAKNIRHLRRLRGMSQELLAAELDITRARLGAYEESRSEPPLHLLIKISEFFKLPVDIIVKNDLTKS”, the “soluble fraction (log2)” value was -0.961.
For “HMVYFDDEELDRFAGRAADSYTSDETDEFRDVMLTLLPADVMPWTQSIEMRGILLPEQLRDELLML” the value was -1.26.
“HMVYVPTKAEVSQQFQDASKARFDERYAIVELADGRRTMAPLAFLTKADHAWLKQLASTSPLPKGK”: the “soluble fraction (log2)” value came out at 0.0133.
For “HMWAQSVSLHGLLGRQALLIVDGKPPRAVAPGQTHLGVTVLSTDEDRAVVALAGGQRLTLRVGESPVSVG” the value was 0.264; for “HMWMEKEELLWNDIIRGGVERGELREDTDIQEAAALFRQVFIGLAYQMSFSDGLDVGILRKRFHHIYGLLT”, -2.16.
For “HMWNKGETKIPTQAQNELIKRRQAGATWTSLSEWLKATYGIDIHRTNIQRWYDKEVYLDQEN” the value was -0.556; for “HMWNPVLVVRGDFPKDLATTLLKMIFAQKEALNPHILFQNLLRTDNITFRESYPYHSASKTMFRF”, -0.421.
Under “HMWPQIAGFADRFGLSDTERRIVTLMSHGRSRKIIASTLGYSQNTIRNYTRNIYAKAGVHSKQELLDLLDP” stands -0.117; under “HMWPTPRTWSALMNELNLYKENHGYANIVDIPSEKIRRMADGIIGEDMAVRYVAFLQSHASS”, -0.614; under “HMWQKGEPAITGLKRISKPGLRIYSKNDELPIVYGNRGIAVISTNKGVMTGIEAKRSGVGGEVLFYV”, 0.104.
Consider “HMWSAREQVVNSLREAILTSELKAGERLVLSDLSARLGVSVTPIREALQSLEREGLVQLMPHQEAVVV”, for which the “soluble fraction (log2)” value was -0.409.
Regarding “HMWVETITTKAGITKYKFQERYTDTYSGKTKRVSVTYTSNSRQAYKLAQAELQKKIDLATNTD”, the “soluble fraction (log2)” value worked out at 0.112.
For “HMYAHLGKNLEVVINKALAQEDPEKKAGFAHHIAYYMKLAYSNWHKELVHDDAIRSELDTITGGELEFSN” the value was -0.0696.
Turning to “HMYAHTPEMEAMNELGLEPPVTLDEIKKTYKTLVKKYHPDHNKEDPEAEEKLKKVNMAYTILKVAYTEFEK”, the “soluble fraction (log2)” value turned out to be 0.0101.
Regarding “HMYALGIPVSQYRRTTQVLGHESSYPIAYEDEKQDDDFYLFKFPNIDEYDFKKIVILLKQNGITT”, the “soluble fraction (log2)” value was -0.338.
“HMYDNTVTKYVNSLSVYVRKGPSTSDEIVTSLIKDTDVTVVGENGEWYKIKYKEFEGYIYKNLLSDNKT”: the “soluble fraction (log2)” value is -0.125.
Under “HMYDRIKLLKLREKRGLTQYELAEKAGISVVTLNKIETSDMAKPFASTLKKIALALGVGIEELS” stands 0.22; under “HMYEDGGAFLKAEREKYGLTLTDIYEHTHIPVRKLKAYEMHEEEMPDRTRALLELYFDQVAYEYES”, -0.339; under “HMYEDIDSAYRILEINSTVSNQEIKNAYRRMAKKYHPDKVAHLGVEHQKGAEEKFKKVQEAYILIKKRRG”, -0.146.
For “HMYEENFSKIKNDISTIFKRHKISFTNNFISHLSSVFNTDSLTNKMELEKLDSFLINNKKVTENELLKFII” the value was 0.0436; for “HMYEINEIIRERRLKKGLTQAQVAKYLGVSAPAVNKWEKGTTYPDLVLLPALARLLDTDLTTLLSF”, -1.02; for “HMYEVVPNMRGLTYNQATAALAAAGLKVELSDSIYDEHTQPGTVLDQSPRPNTKVKPNRVVYLTVNAF”, -0.0904.
For “HMYFDDEELDTYKGRASNAYSPDETAQFEEVMTTMRPDEVAAWLRSLQLRGINLPDELKDEAIMLVE” the value was -1.22.
On to “HMYFGNSLFQARKRSGLSQEGVAEKLGVSRQTVSKWETGETVPDIYQSKKMARLYGVSLDEL”, for which the “soluble fraction (log2)” value is 0.217.
Regarding “HMYFNTADLKADSIHYGSTEQSVIKILGEPEYRETFVDNNVSYELFSYKGNLLLSFVENSLVSL”, the “soluble fraction (log2)” value is -0.0269.
In the case of “HMYGTERILAQLANYGIPNKLAFQIQDFYKEETLQIVEQQPYRLVEDIQGMGFKIADQLAEELGI”, the “soluble fraction (log2)” value was -1.35.
Under “HMYIDLHEIWKSLTDEEQTVVKLLETEPAHVDTLIENSQIPASRILATLTLLEVRGIVKRLPGRMFSLAD” stands -0.571; under “HMYIENIGDYLKSHDIKPSYQRIKVFEYLMQHKNHPTVDMIYKSLVDEIPTLSKTTVYNTLNLFIEKQI”, 0.0963; under “HMYITGAVIRKLREKNNITQLQLAERLRVSDKTISKWETGKGYPDITLLEPIAKTFSVSVTELISGDI”, -0.84.
For “HMYKNLRAFRESLGMTQKDFAASLSIGLSTYNGYEVGAREPKSDFWIAVARKYGVTIDYLMGFSDDPHK” the value was 0.195.
For “HMYKSSRASKSEVNKFLKFIIQSLDKRGFLQPGHKRQSMIRNIENIFYRTNLSDQEIRILLGIFSTLNK” the value was -0.405; for “HMYLELVTKEGGSFDEPDYWGRRKLAYEIAGKTEGNYVVVKYTAEPATSDELDRVLNLNESVIRTKILRK”, -0.461.
On to “HMYLHSEFSPVTGQELHMKYDDSSTEEDPVMLVEGKDIQGNDFVKKIHLNDVDPENATPAEMTALRVHL”, for which the “soluble fraction (log2)” value was -0.507.
For “HMYLLPVTSTELKGNYPNPFNPETTISFDLKDAERVNLSIYNLKGQLVRTLVNSDLPIGRHRLIWDGNDS” the value was -0.609.
Take “HMYLPGERMRIKITALGSNPKQGVGYLPDGMMVVVDEAATLVGRFVEIEFVKFLQTNSGRMMFAKVAT”: the “soluble fraction (log2)” value was -0.02.
On to “HMYMKGKVKWFDSKKGYGFITSENGKEIFVHFSGIAAKGFKSLNEGQTVEFEVANGAKGEQAVNVTV”, for which the “soluble fraction (log2)” value stood at 0.178.
Under “HMYMKTITEQFGERLKKIRTQKSLSQEQLSYLADIDRSYISDVERGARNISLENIYKLASALNIPPYLVLL” stands -0.344; under “HMYMLYQQLADSLRDKIYEGTYTFGDKIPSERTLAATFGISHLTVRKALAILEEEGLLDRRQGNGTFVRV”, -0.693.
Under “HMYNIDSFMTKNYPTMERFTLSDVQKKYKTTFGLFVKQDELASMIEKTGRFNITSSKNVKYVNR” stands 0.313; under “HMYNPAYDAEIKVILELARHGYWEEARERADELLKAAPDDTGVKRIQTWVRQQEQRMREQAIEDSIRA”, -0.206.
In the case of “HMYPEETVNKILDVSMQLFLEKGYEHTSIQDIVNHLGGLSKGAIYHHFKSKEDILDGVMNKLYQNN”, the “soluble fraction (log2)” value was -0.941.
Under “HMYPGQILEIYLDEIKRLYLNGLSSADIFAEIKEGSIPSVKKAIRSMKDGSAPVKITEAEESTRIAPS” stands -0.785; under “HMYPTPAAANRHFLDKWGHQEAYLGKVLNSRSRASEILNGKRPLSLSDLRTLRDNLGIPVDLLL”, -0.421; under “HMYQKERDKEISEIETFLKKITNANGTRAYSDESIADMSYVELLNLYEGITSKLTEEEIENI”, -0.644.
Under “HMYQPLYEQIKRMLTQSLIDGEWKAGEMIPSEMELAARFKVSQGTVRKAIDELVSENILMRRQGKGTFVH” stands 0.22; under “HMYSDDNKSILNLIDNLFNKENIKIDINAKKLLSNYLGVDRLVTKGEIEKAILFAGTKKHLSIEDISAFLS”, -0.992.
For the sequence “HMYSFPHQLLKLRTEKQLSQAELATRLFVSRQAVSKWENGDAEPSIDKLILLAKVFNVSLDRLILGT”, the “soluble fraction (log2)” value was determined as 0.18.
For “HMYSIDNPPDWLKNLPKGAIRIGVEVFNQVLSKADDEDRARMAAWSAIKAKYEKADDGQWQPKAA” the value was 0.221; for “HMYSNDEIVNYLKNYIFDNFNLNELSDEELEEKIAELVQQQFAGQLLSLDEKVKLVNQVYSSIR”, -0.139; for “HMYSRQRDLILKALRENVVHPTADFIYTVLKEKEPNLSLATVYRNLNLLANEGIIRKIEGLDGVAHFDH”, 0.059.
In the case of “HMYSVVGKKGIVIEDINYSTGTGQIKSEGEVWSAKTNEQINIPKGTEIEIESIDGVKVIVKPL”, the “soluble fraction (log2)” value came out at 0.221.

Source of the values: the domain aggregation screens of Martell et al. (2025).
